Columns and labels:
[1] = system: MDA-MB-231 cancer cell line; experiment: Apoptosis by annexin V/propodium iodide flow cytometry; format: cell-based, human; details: MDA-MB-231, 24 h, annexin V/PI
[2] = molecular target: XIAP BIR3-only protein (residues 241–356) (human) (UniProt P98170); experiment: fluorescence polarisation
[3] = molecular target: XIAP linker–BIR2–BIR3 protein (residues 120–356) (human) (UniProt P98170); experiment: fluorescence polarisation
[4] = molecular target: XIAP BIR2-only protein (residues 120–240) (human) (UniProt P98170); experiment: fluorescence polarisation

Row | Compound | induction of apoptosis [1] | Ki [2] [nM] | Ki [3] [nM] | Ki [4] [µM]
1 | COC(=O)CC[C@H](NC(=O)[C@H](CC(=O)OC)NC(=O)OCc1ccccc1)C(=O)N[C@H](C(=O)N[C@@H](CC(=O)OC)C(=O)CF)C(C)C [Z-DEVD-FMK] | no effect on cells |  |  | 
2 | compound 2 (monovalent Smac mimetic, N-methyl-AKPF) (peptide) |  | 86 | 900 | 11.7
